Test results from patent publication US10139419B2, “Methods for detecting Aβ oligomers” (SYSTEM OF SYSTEMS ANALYTICS, INC., priority 2014, dated 2018).
Bridge positions count the residues as written; N and C are the ends. Square brackets hold non-standard residues; d marks the D form. Ends that are not written are not given here. * marks the point of attachment. FITC = O=C1OC2(c3ccc(O)cc3Oc3cc(O)ccc32)c2ccc(NC(=S)*)cc21; Ahx = NCCCCCC(=O)O

Assays:
[1] = biological target: T1, Aβ oligomer (Homo sapiens, UniProt P05067); test: PLISA using PEP-11 peptide probes on Aβ monomer, oligomer and fiber; type: binding
T1 sequence (P05067 672-713 limits assumed): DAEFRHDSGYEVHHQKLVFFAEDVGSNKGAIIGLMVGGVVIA
Description: PEP-11ds is also represented by SEQ ID NO:64, but has a disulfide bridge at the two cysteines.

[2] = biological target: T1, Aβ oligomer; test: Peptide Linked Immunosorbent Assay (PLISA) compared with ELISA; type: binding; settings: ELISA with Aβ antibody 6E10 labeled with horse radish peroxidase
Description: FIG. 7 depicts different formats for a PLISA as described herein. PLISA (A) depicts a sandwich format in which a target oligomer, such as an Aβ oligomer (SDS Oligo), binds to both surface-bound peptide probe (peptide) and peptide probe tagged with a label (Tag). The complex is detected using a labeled antibody (Anti-TagAb-label). PLISA (B) depicts a sandwich format in which the peptide probe tagged with a label is replaced by a labeled antibody (Ab-label) specific to the Aβ oligomer. PLISA (C) depicts a sandwich format in which the surface-bound peptide probe is replaced with an antibody specific to the Aβ oligomer (Ab-6E10). PLISA (D) depicts a competitive format in which Aβ oligomer in a biological sample competes with surface-bound Aβ oligomer for a labeled peptide probe. Each of PLISA (A)-(D) can use a solid-phase format (shown here as a bead, in which the bead is passed through an apparatus for detecting the labels).
Different concentrations of Aβ oligomer in solution are subjected to both PLISA and ELISA to determine the sensitivity of each assay, as measured by dose response curves. For the PLISA assay, the peptide probe used is AD317 (SEQ ID NO:41). For the ELSIA, the antibody used is Aβ antibody 6E10 labeled with horse radish peroxidase. […]

[3] = biological target: T2, synthetic Aβ oligomer (Homo sapiens, UniProt P05067); test: Fluorescence detection assay of synthetic Aβ oligomer spiked into human CSF; type: binding; settings: 10 mM HEPES pH 7.0; 0.005% NP-40; 10% normal human cerebrospinal fluid; 70 nM pyrenated peptide; 37° C.
T2 construct: The monomers can comprise one or more of Aβ3-42, Aβ37, Aβ38, Aβ39, Aβ40 and Aβ42; host or cells: synthetic peptide oligomer
T2 sequence (P05067 672-713 limits assumed): as above
Procedure: Samples of CSF from a normal human subject are spiked with different concentrations of synthetic Aβ oligomer, and subjected to fluorescence detection assay using peptide probe AD315 (SEQ ID NO:65). The detection is performed in an assay with the following conditions: 10 mM HEPES buffer at pH 7.0; 0.005% NP-40; 10% normal human cerebrospinal fluid; 70 nM pyrenated peptide; and 37° C. incubation.

[4] = biological target: T3, Aβ42 oligomer (Homo sapiens, UniProt P05067); test: Streptavidin bead binding assay with gel electrophoresis detection; settings: column 4
T3 sequence (P05067 672-713 limits assumed): as above
Procedure: An assay is performed to analyze peptide probe binding to Aβ42 oligomer. The peptide probe is the same as the probe in EXAMPLE 8. Five samples are analyzed: (1) Aβ42 biotinylated oligomer as a positive control; (2) Aβ42 biotinylated oligomer bound to a bead via streptavidin; (3) peptide positive control; (4) peptide probe bound to Aβ42 biotinylated oligomer bound to a bead via streptavidin; and (5) peptide probe bound to a bead via streptavidin. Detection was by gel electrophoresis.

[5] = biological target: T3, Aβ42 oligomer; test: Fluorescent anisotropy versus Aβ42 oligomer concentration; type: binding

Pep11-ds: represented by SEQ ID NO:64, but has a disulfide bridge at the two cysteines ({FITC}-[Ahx]CLVFFAEDVGSNKGAIIGLMC[dR][dR]; disulfide 2-22; not fully specified)
preferential detection/binding of Aβ oligomer as compared to Aβ monomer or fiber [1]: preferentially detect Aβ oligomer

Pep11-b: consists of SEQ ID NO:64, at a purity of 95% (high) ({FITC}-[Ahx]CLVFFAEDVGSNKGAIIGLMC[dR][dR]; not fully specified; cysteine pairing not given here)
preferential detection/binding of Aβ oligomer as compared to Aβ monomer or fiber [1]: preferentially detect Aβ oligomer

AD317: P22, biotin labeled with thrombin site linker, at C-terminus (KLVFFAEDVGSNKHAIIELMKGLVPRGSGK; not fully specified (residue 30, C-terminus); also: biotin label at C-terminus via thrombin site linker, attachment place not given here)
sensitivity for detecting Aβ oligomer, PLISA vs ELISA (dose response curves) [2]: more sensitive assay for detecting Aβ oligomer than the ELISA

Pep11-a: consists of SEQ ID NO:64, at a purity of 86% (standard) ({FITC}-[Ahx]CLVFFAEDVGSNKGAIIGLMC[dR][dR]; not fully specified; cysteine pairing not given here)
preferential detection/binding of Aβ oligomer as compared to Aβ monomer or fiber [1]: preferentially detect Aβ oligomer

AD315: Salt bridge at G29H and G33E; PBA and NH2 additions; pyrenated peptide (KLVFFAEDVGSNKHAIIELMK-NH2; not fully specified (N-terminus); also: PBA addition, pyrene label)
fluorescence response to synthetic Aβ oligomer concentration [3]: linear, dose-dependent curve
binding of peptide probe to bead-bound Aβ42 biotinylated oligomer [4]: can be used to detect Aβ42 oligomer
fluorescent anisotropy (milli-r) as a function of Aβ42 oligomer concentration (nN) [5]: decreases as oligomer concentration increases
